How the values were obtained:
HeLa Kyoto [1] = assay: melting temperature (median over replicates), in situ; higher = more thermally stable
HeLa Kyoto [2] = assay: solubility in G1/S (NP-40 vs SDS abundance) (log2 ratio); higher = more soluble; details: cell cycle stage: G1/S
HeLa Kyoto [3] = assay: solubility change mitosis vs G1/S (difference of NP-40 vs SDS log2 ratios) (log2 ratio difference); higher = more soluble in mitosis
HeLa Kyoto [4] = assay: thermal stability score vs G1/S (z-score of summed log2 fold changes over temperatures); higher = more thermally stable than in G1/S
[5] = cell cycle stage: early G1 (4.5 h after nocodazole release)
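For melting temperature (median over replicates), in situ in this document: HeLa Kyoto cells synchronized by double thymidine or nocodazole block, proteins quantified by TMT10plex mass spectrometry, three independent biological replicates.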
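For solubility change mitosis vs G1/S (difference of NP-40 vs SDS log2 ratios) in this document: synchronized HeLa Kyoto cells (double thymidine block for G1/S, nocodazole release for mitosis), protein amounts in NP-40 versus SDS lysates quantified by mass spectrometry, three biological replicates.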
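For solubility in G1/S (NP-40 vs SDS abundance) in this document: HeLa Kyoto cells arrested at G1/S by double thymidine block, proteins quantified by TMT10plex mass spectrometry in mild NP-40 versus SDS extracts, three biological replicates.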
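For thermal stability score vs G1/S (z-score of summed log2 fold changes over temperatures) in this document: synchronized HeLa Kyoto cells, proteins quantified by TMT10plex mass spectrometry, three biological replicates, mitosis taken 0.5 h after nocodazole release, G1/S directly after double thymidine block.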

Row | Substance | melting temperature (HeLa Kyoto [1]; cell cycle stage: G1/S) [°C] | melting temperature (HeLa Kyoto [1]; cell cycle stage: mitosis) [°C] | solubility in G1/S (log2) (HeLa Kyoto [2]) | solubility change mitosis (log2) (HeLa Kyoto [3]) | thermal stability score (HeLa Kyoto [4]; [5]) | thermal stability score (HeLa Kyoto [4]; cell cycle stage: mitosis)
1 | MRAVRRGLREGGAMAAARDPPEVSLREATQRKLRRFSELRGKLVARGEFWDIVAITAADEKQELAYNQQLSEKLKRKELPLGVQYHVFVDPAGAKIGNGGSTLCALQCLEKLYGDKWNSFTILLIHSGGYSQRLPNASALGKIFTALPLGNPIYQMLELKLAMYIDFPLNMNPGILVTCADDIELYSIGEFEFIRFDKPGFTALAHPSSLTIGTTHGVFVLDPFDDLKHRDLEYRSCHRFLHKPSIEKMYQFNAVCRPGNFCQQDFAGGDIADLKLDSDYVYTDSLFYMDHKSAKMLLAFYEKIGTLSCEIDAYGDFLQALGPGATVEYTRNTSNVIKEESELVEMRQRIFHLLKGTSLNVVVLNNSKFYHIGTTEEYLFYFTSDNSLKSELGLQSITFSIFPDIPECSGKTSCIIQSILDSRCSVAPGSVVEYSRLGPDVSVGENCIISGSYILTKAALPAHSFVCSLSLKMNRCLKYATMAFGVQDNLKKSVKTLSDIKLLQFFGVCFLSCLDVWNLKVTEELFSGNKTCLSLWTARIFPVCSSLSDSVITSLKMLNAVKNKSAFSLNSYKLLSIEEMLIYKDVEDMITYREQIFLEISLKSSLM [FPGT] | 54.4 | 55.1 | 0.115 | -0.353 | 1.19 | 2.29
2 | MGLADASGPRDTQALLSATQAMDLRRRDYHMERPLLNQEHLEELGRWGSAPRTHQWRTWLQCSRARAYALLLQHLPVLVWLPRYPVRDWLLGDLLSGLSVAIMQLPQGLAYALLAGLPPVFGLYSSFYPVFIYFLFGTSRHISVGTFAVMSVMVGSVTESLAPQALNDSMINETARDAARVQVASTLSVLVGLFQVGLGLIHFGFVVTYLSEPLVRGYTTAAAVQVFVSQLKYVFGLHLSSHSGPLSLIYTVLEVCWKLPQSKVGTVVTAAVAGVVLVVVKLLNDKLQQQLPMPIPGELLTLIGATGISYGMGLKHRFEVDVVGNIPAGLVPPVAPNTQLFSKLVGSAFTIAVVGFAIAISLGKIFALRHGYRVDSNQELVALGLSNLIGGIFQCFPVSCSMSRSLVQESTGGNSQVAGAISSLFILLIIVKLGELFHDLPKAVLAAIIIVNLKGMLRQLSDMRSLWKANRADLLIWLVTFTATILLNLDLGLVVAVIFSLLLVVVRTQMPHYSVLGQVPDTDIYRDVAEYSEAKEVRGVKVFRSSATVYFANAEFYSDALKQRCGVDVDFLISQKKKLLKKQEQLKLKQLQKEEKLRKQAASPKGASVSINVNTSLEDMRSNNVEDCKMMQVSSGDKMEDATANGQEDSKAPDGSTLKALGLPQPDFHSLILDLGALSFVDTVCLKSLKNIFHDFREIEVEVYMAACHSPVVSQLEAGHFFDASITKKHLFASVHDAVTFALQHPRPVPDSPVSVTRL [SLC26A6] | 56.6 | 56 | -0.00184 | -0.0476 | -1.84 | -2.56
3 | GPATCH8 | 47.8 | 49.6 | -0.561 | 0.335 | 0.236 | 4.11
4 | MAAWGCVAALGAARGLCWRAARAAAGLQGRPARRCYAVGPAQSPPTFGFLLDIDGVLVRGHRVIPAALKAFRRLVNSQGQLRVPVVFVTNAGNILQHSKAQELSALLGCEVDADQVILSHSPMKLFSEYHEKRMLVSGQGPVMENAQGLGFRNVVTVDELRMAFPLLDMVDLERRLKTTPLPRNDFPRIEGVLLLGEPVRWETSLQLIMDVLLSNGSPGAGLATPPYPHLPVLASNMDLLWMAEAKMPRFGHGTFLLCLETIYQKVTGKELRYEGLMGKPSILTYQYAEDLIRRQAERRGWAAPIRKLYAVGDNPMSDVYGANLFHQYLQKATHDGAPELGAGGTRQQQPSASQSCISILVCTGVYNPRNPQSTEPVLGGGEPPFHGHRDLCFSPGLMEASHVVNDVNEAVQLVFRKEGWALE [CECR5] | 50.8 | 50.2 | 0.262 | -0.159 | 0.291 | 1.28
5 | MDDPDCDSTWEEDEEDAEDAEDEDCEDGEAAGARDADAGDEDEESEEPRAARPSSFQSRMTGSRNWRATRDMCRYRHNYPDLVERDCNGDTPNLSFYRNEIRFLPNGCFIEDILQNWTDNYDLLEDNHSYIQWLFPLREPGVNWHAKPLTLREVEVFKSSQEIQERLVRAYELMLGFYGIRLEDRGTGTVGRAQNYQKRFQNLNWRSHNNLRITRILKSLGELGLEHFQAPLVRFFLEETLVRRELPGVRQSALDYFMFAVRCRHQRRQLVHFAWEHFRPRCKFVWGPQDKLRRFKPSSLPHPLEGSRKVEEEGSPGDPDHEASTQGRTCGPEHSKGGGRVDEGPQPRSVEPQDAGPLERSQGDEAGGHGEDRPEPLSPKESKKRKLELSRREQPPTEPGPQSASEVEKIALNLEGCALSQGSLRTGTQEVGGQDPGEAVQPCRQPLGARVADKVRKRRKVDEGAGDSAAVASGGAQTLALAGSPAPSGHPKAGHSENGVEEDTEGRTGPKEGTPGSPSETPGPSPAGPAGDEPAESPSETPGPRPAGPAGDEPAESPSETPGPRPAGPAGDEPAESPSETPGPSPAGPTRDEPAESPSETPGPRPAGPAGDEPAESPSETPGPRPAGPAGDEPAESPSETPGPSPAGPTRDEPAKAGEAAELQDAEVESSAKSGKP [OGFR] | 48.1 | 49.6 | 0.423 | -0.0617 | 1.46 | 3.46
6 | AGL | 51.1 | 50.6 | -0.215 | -0.204 | -0.229 | -0.757

From the supplement of paper PMC5998384
